Experimental data published in paper PMC6502868, “Architecture of Saccharomyces cerevisiae SAGA complex” (Cell Discovery, 2019).

B1: Taf9 (natural protein, S. cerevisiae, UniProt Q05027 1-157, looked up)
chain: MNGGGKNVLNKNSVGSVSEVGPDSTQEETPRDVRLLHLLLASQSIHQYEDQVPLQLMDFAHRYTQGVLKDALVYNDYAGSGNSAGSGLGVEDIRLAIAARTQYQFKPTAPKELMLQLAAERNKKALPQVMGTWGVRLPPEKYCLTAKEWDLEDPKSM
notes: Taf9, S. cerevisiae, SAGA subunit (TAF module); source: endogenous, in the native SAGA complex purified from fermented S. cerevisiae cells
B2: Spt20 (natural protein, S. cerevisiae, UniProt P50875 1-604, looked up)
chain: MSANSPTGNDPHVFGIPVNATPSNMGSPGSPVNVPPPMNPAVANVNHPVMRTNSNSNANEGTRTLTREQIQQLQQRQRLLLQQRLLEQQRKQQALQNYEAQFYQMLMTLNKRPKRLYNFVEDADSILKKYEQYLHSFEFHIYENNYKICAPANSRLQQQQKQPELTSDGLILTKNNETLKEFLEYVARGRIPDAIMEVLRDCNIQFYEGNLILQVYDHTNTVDVTPKENKPNLNSSSSPSNNNSTQDNSKIQQPSEPNSGVANTGANTANKKASFKRPRVYRTLLKPNDLTTYYDMMSYADNARFSDSIYQQFESEILTLTKRNLSLSVPLNPYEHRDMLEETAFSEPHWDSEKKSFIHEHRAESTREGTKGVVGHIEERDEFPQHSSNYEQLMLIMNERTTTITNSTFAVSLTKNAMEIASSSSNGVRGASSSTSNSASNTRNNSLANGNQVALAAAAAAAAVGSTMGNDNNQFSRLKFIEQWRINKEKRKQQALSANINPTPFNARISMTAPLTPQQQLLQRQQQALEQQQNGGAMKNANKRSGNNATSNNNNNNNNLDKPKVKRPRKNAKKSESGTPAPKKKRMTKKKQSASSTPSSTTMS
notes: Spt20, S. cerevisiae, SAGA subunit (SPT module); source: endogenous, in the native SAGA complex purified from fermented S. cerevisiae cells
B3: Ada1 (natural protein, S. cerevisiae, UniProt Q12060 1-488, looked up)
chain: MSAIQSPAPKPLQPTYPAASPASTNAYMKPGLIGSPAVSNHTEPNNGNNETAEPQGPNQRIDLGAMIEELTSLLGKESWTKYAQIISLFILGKLSRKELSNELELVFSPSAASLEKSNTNHHHSLVRLHNQLLLGIFANSLRENPLGRNGNESSWGFGNGSNNPNNKLKRINKHNSQIEVYKKIVMSLPLNDRNRLKMITKEAGKRGFIFCSVFQARLNNIPKIPIVTNPESLKRVKSNNLKTPLEWSQDIMNGFNVPLASESHSLPDTDSFYLRMVGIAREHGLVGTVDARCVELISLALDQYLKNIIEFTIDTVRYRRKKYSDYYDLNESGLYKSVSEMAADKRDAKIKQLDDDKNEDECADEAKSINNGNNSSKDDIGDISMSSITKAGEAVNEELHENRTISLTNEDIYDSLSIFPNLVEPSGSYYALTNLGLVNDDELVDMKSNIDDLPDFLNEKPTFTPLDERNVGTRHELNWLIKGILTED
notes: Ada1, S. cerevisiae, SAGA subunit (SPT module); source: endogenous, in the native SAGA complex purified from fermented S. cerevisiae cells
B4: Spt8 (natural protein, S. cerevisiae, UniProt P38915 1-602, looked up)
chain: MDEVDDILINNQVVDDEEDDEEMLSGLENDSKQDLEGNDDGGEDEEDDDDDDEDDDDDEDEREDDDEQEDDDGEDDAARMDKTATPTNEHQHDEQKAAAAGAGGAGDSGDAVTKIGSEDVKLSDVDGGVGSREASSSTHEASANGEVYEYYKHMLNAAQIADSYNIYPTAAIPIQTHVNALAVSRGLKYLFLGGSDGYIRKYDLLNTLEGKLSLTILQKHSLAESIQNAGILQSYWENEIPQKKSEMKLSANKTDYEPKVSPVHSLEVQSECLFILSGLQNGGITMQGVRYMEGSIAHYFKGRNGHTQIVNILRLNGQEDRFLSGSWDKRLLEWDLQTGDIVNEFKKSRSELSSLEMRPLYSSVDVSGNVNSGKENENADDDMDSLFGDEDEDEKQDAGNEPVETGDGSNGEENKEQISEESLNIVYDESVFMTSGLNGSVHIWDRRMTQSPALSLERGAGVPPWCLSACWGVDGDHVYAGRRNACVEQFDLKMPSKPIHNLKLPSISGPVSCVKAMPNNKHLLCASRDNIRLYNVEIAVDASNSTTKSSKVPFLIVPGHHGGIISNLYLDPTSRFIISTSGNRGWQGNSTDTTLIYDIDLE
notes: Spt8, S. cerevisiae, SAGA subunit (SPT module), ~66.2 kDa as printed; source: endogenous, in the native SAGA complex purified from fermented S. cerevisiae cells
B5: Taf6 (natural protein, S. cerevisiae, UniProt P53040 1-516, looked up)
chain: MSTQQQSYTIWSPQDTVKDVAESLGLENINDDVLKALAMDVEYRILEIIEQAVKFKRHSKRDVLTTDDVSKALRVLNVEPLYGYYDGSEVNKAVSFSKVNTSGGQSVYYLDEEEVDFDRLINEPLPQVPRLPTFTTHWLAVEGVQPAIIQNPNLNDIRVSQPPFIRGAIVTALNDNSLQTPVTSTTASASVTDTGASQHLSNVKPGQNTEVKPLVKHVLSKELQIYFNKVISTLTAKSQADEAAQHMKQAALTSLRTDSGLHQLVPYFIQFIAEQITQNLSDLQLLTTILEMIYSLLSNTSIFLDPYIHSLMPSILTLLLAKKLGGSPKDDSPQEIHEFLERTNALRDFAASLLDYVLKKFPQAYKSLKPRVTRTLLKTFLDINRVFGTYYGCLKGVSVLEGESIRFFLGNLNNWARLVFNESGITLDNIEEHLNDDSNPTRTKFTKEETQILVDTVISALLVLKKDLPDLYEGKGEKVTDEDKEKLLERCGVTIGFHILKRDDAKELISAIFFGE
notes: Taf6, S. cerevisiae, SAGA subunit (TAF module), ~58 kDa as printed; source: endogenous, in the native SAGA complex purified from fermented S. cerevisiae cells
B6: Ada3 (natural protein, S. cerevisiae, UniProt P32494 1-702, looked up)
chain: MPRHGRRGKLPKGEKLPKKEGGDNTPSKLLSSMLKTLDLTFERDIGMLNGKSVRSIPNKKTLLELQSQLDSLNEILGTIARGDQETIEALRKIRDSKNEKQANDEKQETSNADGQHESSTATEETNIIDKGVQSPPKPPPSNEISGTIENDVESIKQAADNMAKEEINEDKDLQVHRDQPREKRPFDSETENRATENENTQRPDNKKQKIDVDKMENDPTVKNPKSEFVVSQTLPRAAAALGLFNEEGLESTGEDFLKKKYNVASYPTNDLKDLLPGELPDMDFSHPKPTNQIQFNTFLAFVENFFKDLSDDNLKFLKMKYIIPDSLQFDKTYDPEVNPFIIPKLGPLYTDVWFKDENDKNSAYKKPSPYSNDASTILPKKSANELDDNALESGSISCGPLLSRLLSAVLKDDNDKSELQSSKIIRDGGLPRTGGEDDIQSFRNNNNDTVDMTLSQENGPSVQTPDNDIDEEASFQAKLAENKGSNGGTTSTLPQQIGWITNGINLDYPTFEERLKRELKYVGIYMNLPKDENNPNSDDPDWVTGREDDEISAELRELQGTLKQVTKKNQKRKAQLIPLVERQLAWQEYSSILEDLDKQIDQAYVKRIRVPKKRKKHHTAASNNVNTGTTSQIAQQKAANSSLKSLLDKRQRWINKIGPLFDKPEIMKRIPNESVFKDMDQEEDEDEADVFAQNTNKDVELN
notes: Ada3, S. cerevisiae, SAGA subunit (HAT module); source: endogenous, in the native SAGA complex purified from fermented S. cerevisiae cells
B7: Ada2 (natural protein, S. cerevisiae, UniProt Q02336 1-434, looked up)
chain: MSNKFHCDVCSADCTNRVRVSCAICPEYDLCVPCFSQGSYTGKHRPYHDYRIIETNSYPILCPDWGADEELQLIKGAQTLGLGNWQDIADHIGSRGKEEVKEHYLKYYLESKYYPIPDITQNIHVPQDEFLEQRRHRIESFRERPLEPPRKPMASVPSCHEVQGFMPGRLEFETEFENEAEGPVKDMVFEPDDQPLDIELKFAILDIYNSRLTTRAEKKRLLFENHLMDYRKLQAIDKKRSKEAKELYNRIKPFARVMTAQDFEEFSKDILEELHCRARIQQLQEWRSNGLTTLEAGLKYERDKQARISSFEKFGASTAASLSEGNSRYRSNSAHRSNAEYSQNYSENGGRKKNMTISDIQHAPDYALLSNDEQQLCIQLKILPKPYLVLKEVMFRELLKTGGNLSKSACRELLNIDPIKANRIYDFFQSQNWM
notes: Ada2, S. cerevisiae, SAGA subunit (HAT module); source: endogenous, in the native SAGA complex purified from fermented S. cerevisiae cells
B8: Taf5 (natural protein, S. cerevisiae, UniProt P38129 1-798, looked up)
chain: MSQKQSTNQNQNGTHQPQPVKNQRTNNAAGANSGQQPQQQSQGQSQQQGRSNGPFSASDLNRIVLEYLNKKGYHRTEAMLRAESGRTLTPQNKQSPANTKTGKFPEQSSIPPNPGKTAKPISNPTNLSSKRDAEGGIVSSGRLEGLNAPENYIRAYSMLKNWVDSSLEIYKPELSYIMYPIFIYLFLNLVAKNPVYARRFFDRFSPDFKDFHGSEINRLFSVNSIDHIKENEVASAFQSHKYRITMSKTTLNLLLYFLNENESIGGSLIISVINQHLDPNIVESVTAREKLADGIKVLSDSENGNGKQNLEMNSVPVKLGPFPKDEEFVKEIETELKIKDDQEKQLNQQTAGDNYSGANNRTLLQEYKAMNNEKFKDNTGDDDKDKIKDKIAKDEEKKESELKVDGEKKDSNLSSPARDILPLPPKTALDLKLEIQKVKESRDAIKLDNLQLALPSVCMYTFQNTNKDMSCLDFSDDCRIAAAGFQDSYIKIWSLDGSSLNNPNIALNNNDKDEDPTCKTLVGHSGTVYSTSFSPDNKYLLSGSEDKTVRLWSMDTHTALVSYKGHNHPVWDVSFSPLGHYFATASHDQTARLWSCDHIYPLRIFAGHLNDVDCVSFHPNGCYVFTGSSDKTCRMWDVSTGDSVRLFLGHTAPVISIAVCPDGRWLSTGSEDGIINVWDIGTGKRLKQMRGHGKNAIYSLSYSKEGNVLISGGADHTVRVWDLKKATTEPSAEPDEPFIGYLGDVTASINQDIKEYGRRRTVIPTSDLVASFYTKKTPVFKVKFSRSNLALAGGAFRP
notes: Taf5, S. cerevisiae, SAGA subunit (TAF module); source: endogenous, in the native SAGA complex purified from fermented S. cerevisiae cells

Molecular target: T1, Tra1 (S. cerevisiae, UniProt P38811 1-3744)
T1 construct: Tra1, S. cerevisiae, largest SAGA subunit (SPT module), 3744 residues as printed; Endogenous subunit; Purification methods and any tag are in the Supplementary Materials; also called Tra1_(SAGA); lobe A; source: endogenous, in the native SAGA complex purified from fermented S. cerevisiae cells
T1 sequence (P38811 whole entry): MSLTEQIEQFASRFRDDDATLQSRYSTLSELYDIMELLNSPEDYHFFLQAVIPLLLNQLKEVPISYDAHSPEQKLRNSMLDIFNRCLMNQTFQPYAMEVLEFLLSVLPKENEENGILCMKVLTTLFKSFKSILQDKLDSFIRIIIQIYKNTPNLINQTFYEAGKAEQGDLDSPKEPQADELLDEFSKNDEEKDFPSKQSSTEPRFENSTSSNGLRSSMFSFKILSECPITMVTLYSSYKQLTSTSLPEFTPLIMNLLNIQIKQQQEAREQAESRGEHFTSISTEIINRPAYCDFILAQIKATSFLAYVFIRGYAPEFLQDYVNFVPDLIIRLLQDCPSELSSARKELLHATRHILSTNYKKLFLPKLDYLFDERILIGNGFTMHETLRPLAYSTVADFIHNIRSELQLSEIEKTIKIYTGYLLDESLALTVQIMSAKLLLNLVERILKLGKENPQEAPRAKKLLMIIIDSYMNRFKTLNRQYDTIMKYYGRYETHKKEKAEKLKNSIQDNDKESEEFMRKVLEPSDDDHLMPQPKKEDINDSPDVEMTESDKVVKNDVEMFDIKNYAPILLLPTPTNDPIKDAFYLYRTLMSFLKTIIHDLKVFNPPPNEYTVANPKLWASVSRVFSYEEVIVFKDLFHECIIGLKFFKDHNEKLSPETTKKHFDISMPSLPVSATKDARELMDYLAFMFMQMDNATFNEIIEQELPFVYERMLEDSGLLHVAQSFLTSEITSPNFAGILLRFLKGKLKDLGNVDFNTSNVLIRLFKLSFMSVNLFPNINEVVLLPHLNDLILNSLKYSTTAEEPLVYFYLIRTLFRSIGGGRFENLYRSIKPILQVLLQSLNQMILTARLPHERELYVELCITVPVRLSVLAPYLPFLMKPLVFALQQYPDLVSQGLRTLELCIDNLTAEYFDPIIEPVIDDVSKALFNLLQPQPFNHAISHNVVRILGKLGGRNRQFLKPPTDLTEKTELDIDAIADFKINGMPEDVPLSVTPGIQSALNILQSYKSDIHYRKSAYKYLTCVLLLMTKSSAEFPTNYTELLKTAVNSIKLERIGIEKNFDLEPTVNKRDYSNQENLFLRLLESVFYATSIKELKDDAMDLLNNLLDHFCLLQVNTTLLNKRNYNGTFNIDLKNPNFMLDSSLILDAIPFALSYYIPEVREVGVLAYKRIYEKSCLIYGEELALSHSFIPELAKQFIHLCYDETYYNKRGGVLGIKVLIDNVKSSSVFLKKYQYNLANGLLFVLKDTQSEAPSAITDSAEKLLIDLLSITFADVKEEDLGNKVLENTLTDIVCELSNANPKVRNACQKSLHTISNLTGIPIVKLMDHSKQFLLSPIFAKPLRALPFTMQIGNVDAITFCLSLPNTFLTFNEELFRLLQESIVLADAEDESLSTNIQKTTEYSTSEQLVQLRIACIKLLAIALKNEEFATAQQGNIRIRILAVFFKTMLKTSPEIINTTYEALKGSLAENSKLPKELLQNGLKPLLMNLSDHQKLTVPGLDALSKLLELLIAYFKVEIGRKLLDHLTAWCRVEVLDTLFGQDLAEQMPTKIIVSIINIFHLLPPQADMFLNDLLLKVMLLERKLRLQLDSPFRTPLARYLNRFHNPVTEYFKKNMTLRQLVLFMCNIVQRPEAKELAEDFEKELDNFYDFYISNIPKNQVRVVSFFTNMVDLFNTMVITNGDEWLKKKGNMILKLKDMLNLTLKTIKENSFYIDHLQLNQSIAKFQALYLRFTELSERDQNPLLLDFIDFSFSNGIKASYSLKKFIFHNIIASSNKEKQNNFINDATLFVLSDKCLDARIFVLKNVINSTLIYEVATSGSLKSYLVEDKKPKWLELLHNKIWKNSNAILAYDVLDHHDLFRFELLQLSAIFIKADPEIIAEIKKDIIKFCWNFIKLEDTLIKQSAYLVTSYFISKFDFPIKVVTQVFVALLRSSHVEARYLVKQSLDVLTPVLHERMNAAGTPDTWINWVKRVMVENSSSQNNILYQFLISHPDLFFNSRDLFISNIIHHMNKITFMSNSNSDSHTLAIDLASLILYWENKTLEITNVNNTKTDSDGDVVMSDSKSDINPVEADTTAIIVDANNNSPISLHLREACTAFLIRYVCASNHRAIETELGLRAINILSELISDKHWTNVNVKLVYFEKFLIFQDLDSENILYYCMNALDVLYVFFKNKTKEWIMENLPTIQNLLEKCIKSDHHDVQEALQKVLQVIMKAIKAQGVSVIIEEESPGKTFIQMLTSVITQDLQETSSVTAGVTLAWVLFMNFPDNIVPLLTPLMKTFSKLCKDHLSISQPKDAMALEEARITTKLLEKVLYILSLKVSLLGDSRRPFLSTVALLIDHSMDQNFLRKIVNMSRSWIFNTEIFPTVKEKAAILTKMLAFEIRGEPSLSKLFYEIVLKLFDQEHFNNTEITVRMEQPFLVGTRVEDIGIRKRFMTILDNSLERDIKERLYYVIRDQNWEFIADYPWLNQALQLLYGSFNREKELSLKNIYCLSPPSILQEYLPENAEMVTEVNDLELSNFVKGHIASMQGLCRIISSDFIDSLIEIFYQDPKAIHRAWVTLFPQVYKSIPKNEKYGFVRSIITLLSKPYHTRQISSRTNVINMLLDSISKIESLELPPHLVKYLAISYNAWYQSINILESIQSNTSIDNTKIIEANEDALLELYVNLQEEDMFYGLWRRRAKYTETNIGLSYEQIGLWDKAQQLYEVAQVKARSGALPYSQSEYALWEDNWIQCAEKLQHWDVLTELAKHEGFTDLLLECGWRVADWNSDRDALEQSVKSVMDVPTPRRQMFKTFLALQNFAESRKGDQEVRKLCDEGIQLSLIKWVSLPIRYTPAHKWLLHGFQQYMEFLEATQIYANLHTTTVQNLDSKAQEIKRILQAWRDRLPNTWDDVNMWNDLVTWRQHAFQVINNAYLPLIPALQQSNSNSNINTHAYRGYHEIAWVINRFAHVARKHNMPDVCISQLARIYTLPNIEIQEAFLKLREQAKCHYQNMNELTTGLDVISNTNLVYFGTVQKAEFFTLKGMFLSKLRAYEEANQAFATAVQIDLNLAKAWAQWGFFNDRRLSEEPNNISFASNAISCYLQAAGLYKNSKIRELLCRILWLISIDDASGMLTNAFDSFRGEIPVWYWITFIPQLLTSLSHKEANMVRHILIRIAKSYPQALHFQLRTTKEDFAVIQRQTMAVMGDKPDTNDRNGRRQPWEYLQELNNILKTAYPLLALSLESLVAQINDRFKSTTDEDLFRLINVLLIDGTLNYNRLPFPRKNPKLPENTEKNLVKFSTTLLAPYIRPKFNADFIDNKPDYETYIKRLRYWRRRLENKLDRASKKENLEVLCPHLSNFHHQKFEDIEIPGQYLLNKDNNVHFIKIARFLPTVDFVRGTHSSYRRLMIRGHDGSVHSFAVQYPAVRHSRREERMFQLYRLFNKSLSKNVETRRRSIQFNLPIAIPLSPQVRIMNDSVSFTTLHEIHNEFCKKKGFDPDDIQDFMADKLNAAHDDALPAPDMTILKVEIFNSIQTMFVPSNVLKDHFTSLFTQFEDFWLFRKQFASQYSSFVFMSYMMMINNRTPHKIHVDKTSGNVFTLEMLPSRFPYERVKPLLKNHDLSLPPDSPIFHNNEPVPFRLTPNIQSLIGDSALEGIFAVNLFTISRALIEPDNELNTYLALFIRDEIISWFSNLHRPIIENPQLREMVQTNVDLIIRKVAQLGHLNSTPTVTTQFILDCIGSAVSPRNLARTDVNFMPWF
Assay: cross-linking; chemical cross-linking of proteins coupled with mass spectrometry (CXMS) on the purified native SAGA complex; 139 unique inter- and 184 unique intra-subunit cross-linking pairs
Conditions: both partners purified

Does B1 bind?
Result: binds

Does B2 bind?
Result: binds

Does B3 bind?
Result: binds

Molecular target: T2, Spt7 (S. cerevisiae, UniProt P35177 1-1332)
T2 construct: Spt7, S. cerevisiae, second largest SAGA subunit (SPT module); source: endogenous, in the native SAGA complex purified from fermented S. cerevisiae cells
T2 sequence (looked up): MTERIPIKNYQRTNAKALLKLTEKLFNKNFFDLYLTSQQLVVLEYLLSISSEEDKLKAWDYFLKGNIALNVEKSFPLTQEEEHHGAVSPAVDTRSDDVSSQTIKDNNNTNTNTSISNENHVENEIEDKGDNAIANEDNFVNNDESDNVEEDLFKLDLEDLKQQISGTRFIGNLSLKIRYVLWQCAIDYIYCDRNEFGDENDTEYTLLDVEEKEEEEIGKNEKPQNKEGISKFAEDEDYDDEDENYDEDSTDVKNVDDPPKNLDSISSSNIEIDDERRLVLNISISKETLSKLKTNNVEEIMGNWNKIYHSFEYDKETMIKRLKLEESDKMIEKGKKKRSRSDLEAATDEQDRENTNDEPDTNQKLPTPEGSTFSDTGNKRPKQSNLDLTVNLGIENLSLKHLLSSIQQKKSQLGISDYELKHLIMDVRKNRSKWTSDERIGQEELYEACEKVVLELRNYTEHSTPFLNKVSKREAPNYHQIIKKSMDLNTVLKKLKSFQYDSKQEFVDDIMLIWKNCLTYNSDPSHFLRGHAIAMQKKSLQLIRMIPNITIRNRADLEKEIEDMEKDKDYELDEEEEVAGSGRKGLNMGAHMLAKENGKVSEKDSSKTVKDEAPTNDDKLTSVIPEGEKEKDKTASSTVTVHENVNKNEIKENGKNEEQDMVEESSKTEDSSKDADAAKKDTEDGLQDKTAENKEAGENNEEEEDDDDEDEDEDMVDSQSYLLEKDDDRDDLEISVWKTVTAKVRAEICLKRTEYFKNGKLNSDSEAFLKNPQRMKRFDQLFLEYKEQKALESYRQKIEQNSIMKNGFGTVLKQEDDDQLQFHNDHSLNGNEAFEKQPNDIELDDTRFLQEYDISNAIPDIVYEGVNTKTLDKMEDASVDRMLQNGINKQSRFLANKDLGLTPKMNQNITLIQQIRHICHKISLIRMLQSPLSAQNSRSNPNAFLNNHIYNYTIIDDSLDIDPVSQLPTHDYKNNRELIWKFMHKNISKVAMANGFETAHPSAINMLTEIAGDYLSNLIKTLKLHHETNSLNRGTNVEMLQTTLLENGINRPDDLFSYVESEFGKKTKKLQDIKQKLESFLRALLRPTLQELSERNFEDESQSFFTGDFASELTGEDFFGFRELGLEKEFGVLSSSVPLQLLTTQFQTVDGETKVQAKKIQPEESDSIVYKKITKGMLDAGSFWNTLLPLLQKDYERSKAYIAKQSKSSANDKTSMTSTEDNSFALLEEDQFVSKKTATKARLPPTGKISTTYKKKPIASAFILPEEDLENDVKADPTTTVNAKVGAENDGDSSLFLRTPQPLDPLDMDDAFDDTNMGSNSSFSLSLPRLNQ
Assay: as above
Conditions: both partners purified

Does B4 bind?
Result: binds

Does B5 bind?
Result: binds

Does B6 bind?
Result: binds

Does B7 bind?
Result: binds

Does B8 bind?
Result: binds
